Measured values: the supplement of paper PMC9170038

Tested on: MS2 coat protein
Test: apparent KD of MS2 coat protein; designed switch direction (-1 OFF switch, 1 ON switch): -1; higher = weaker reporter binding
In short: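 Designed RNA switches with common flanks were transcribed on Illumina chips by stalled E. coli RNA polymerase and titrated with SNAP-549-labelled MS2 coat protein, from 0.7 or 1.5 nM doubling to 3 µM, in Tris-HCl pH 7.5 buffer with KCl, MgCl2, BSA, DTT, tRNA and Tween-20. Steps lasted 0.8–1.5 h (lowest) to 10–20 min (highest). Titrations ran without input, with 200 uM small-molecule ligand, or with an oligonucleotide input. Normalised cluster fluorescence was curve-fitted, and apparent KD is the per-design median over clusters.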

[1] = input ligand: microRNA oligo, concentration not stated
[2] = Eterna round: R95, input ligand: microRNA oligo, concentration not stated
[3] = Eterna round: R95, input ligand: FMN 200 uM
[4] = Eterna round: R95, input ligand: none

CAAAGAUAAGGAUAUUGAAGGUUCGACAUGAGGAUCACCCAUGUUAUGUUGGAAAAGGGACAAGAAGGUAUGAAAU [salish99_ex5_r4_213] (Eterna round: R97, puzzle: Exclusion 5)
apparent KD of MS2 coat protein (input ligand: FMN 200 uM): 41.5 nM | apparent KD of MS2 coat protein (input ligand: none): 40.3 nM

AGGUCCUUCUGGAGACAUGAGGAUCACCCAUGUCGGGUCAGCGAGGAUAUCGGUUAAUAAUGUGACGAGAAGGCGCGGACCGAU [Ex NG3 #56] (Eterna round: R96, puzzle: Exclusion NG 3)
apparent KD of MS2 coat protein (input ligand: FMN 200 uM): 104 nM | apparent KD of MS2 coat protein [1]: 19.5 nM | apparent KD of MS2 coat protein (input ligand: none): 24.9 nM

UUCCUGUCAGGAUAUGACUAGAGGCACGAAAGUGUGUUUAGUUAGAAGGGACAUGAGGAUCACCCAUGUAGUCC [Bring Us a Shrubbery-20] (puzzle: Exclusion 4)
apparent KD of MS2 coat protein [2]: 21.9 nM

GUCGUGUUAGGAUAUGGCGGCGGCGGCGAAAGUUGUUGUUGUUAGAAGGAACAUGAGGAUCACCCAUGUAUGAC [-26 -25.5 kcal, A 24%] (Eterna round: R97, puzzle: Exclusion 4)
apparent KD of MS2 coat protein (input ligand: FMN 200 uM): 104 nM | apparent KD of MS2 coat protein (input ligand: none): 35.3 nM

AAUUAGCAAGCGAGAUCCCACAUGAGGAUCACCCAUGUGCUCGUCUUAUAAGGUACUGUGACGAUAGUCACGGUACC [Mat - Sensor, turn-off var - Eli Mod - D20] (Eterna round: R97, puzzle: Sensor, turn-off variant 1)
apparent KD of MS2 coat protein (input ligand: FMN 200 uM): 15.6 nM | apparent KD of MS2 coat protein (input ligand: none): 13.5 nM

AAAAGAACGGCAGGAUAUGCAAGCACUGACCUCCCAAAAUAAAGAAACAUGAGGAUCACCCAUGUGCAGAAGGGCCAAAAGUGC [Vediusin] (Eterna round: R96, puzzle: Exclusion NG 2)
apparent KD of MS2 coat protein [1]: 10.4 nM

UGUUGUCGCGUAGGAUAUGUAUGAGGAUCACCCAUUAAUAAAUUUUAACCACGAGGAUCACCCGUGUAGAAGGACGGGACAACA [pwkr exNG2 2xF5 1xFMN.16] (Eterna round: R96, puzzle: Exclusion NG 2)
apparent KD of MS2 coat protein (input ligand: FMN 200 uM): 37.9 nM | apparent KD of MS2 coat protein [1]: 18.1 nM | apparent KD of MS2 coat protein (input ligand: none): 30.6 nM

AUUUUGUGAGGAUAUGUGGCUUCGAUCGUGAAAUCGAGGCUACAGAAGGCACAUGAGGAUCACCCAUGUUCCUA [salish99_ex4_r4_117] (Eterna round: R97, puzzle: Exclusion 4)
apparent KD of MS2 coat protein (input ligand: FMN 200 uM): 178 nM | apparent KD of MS2 coat protein (input ligand: none): 19.6 nM

UUUAAUUUUUUUUUUUUACAAGCUUUUUGCUCGUCUUAUACAUGAGGAUCACCCAUGUAGAUGGGAAGUAAAUUAUC [JMF 53] (puzzle: Sensor v3, turn-off variant 2)
apparent KD of MS2 coat protein [3]: 24.7 nM | apparent KD of MS2 coat protein [2]: 200 nM | apparent KD of MS2 coat protein [4]: 24.5 nM

GUCGUGCGGCUUUGCUGUACGAGUACAUGAGGAUCACCCAUGUAGGAUAUGGCACGCUUUGCGUGCCAGAAGGGCGUGCGUUGG [Excl-NG3-LRO10] (Eterna round: R96, puzzle: Exclusion NG 3)
apparent KD of MS2 coat protein (input ligand: FMN 200 uM): 35.1 nM | apparent KD of MS2 coat protein [1]: 21.5 nM | apparent KD of MS2 coat protein (input ligand: none): 28.4 nM

UUUAAAACAUAGGAUAUCGAAAUUAUCAUUUAACGAGAAGGAUGAACAUGAGGAUCACCCAUGUGGUAUCAUGG [Mat - Exclusion 6 - JL Mod - D17] (puzzle: Exclusion 6)
apparent KD of MS2 coat protein [3]: 202 nM | apparent KD of MS2 coat protein [2]: 184 nM | apparent KD of MS2 coat protein [4]: 123 nM

UAUUCACAUGAGGAUCACCCAUGUCAGGAUAUAGUCGAUAUAUGGAAACAUAUAUCGACUAGAAGGGACUAGCG [Jieuxxlusion 12 - Jieux - Exclusion 1] (Eterna round: R97, puzzle: Exclusion 1)
apparent KD of MS2 coat protein (input ligand: FMN 200 uM): 64.5 nM | apparent KD of MS2 coat protein (input ligand: none): 47.4 nM

AAAUAGCUAGAGGAUAUCGGAUAGGAUUUAUUACGAGAAGGUUAGACAUGAGGAUCACCCAUGUUCUGUUGGGA [EX6 #21] (Eterna round: R97, puzzle: Exclusion 6)
apparent KD of MS2 coat protein (input ligand: FMN 200 uM): 86.9 nM | apparent KD of MS2 coat protein (input ligand: none): 34.6 nM

AGGUGUAGAGGAUAUCUCUUCUCUCACAUGAGGAUCACCCAUGUCCUAAAGUCCUAGGAGAGAGAAGGCUACACCA [Omei Ex5 D3] (Eterna round: R97, puzzle: Exclusion 5)
apparent KD of MS2 coat protein (input ligand: FMN 200 uM): 230 nM | apparent KD of MS2 coat protein (input ligand: none): 82.8 nM

UUUUUGUGAGGAUAUCAGUAGUAAAAAAAUAAAAUUACUACUGAGAAGGCACAUGAGGAUCACCCAUGUUCUUU [salish99_ex4_r3_012] (puzzle: Exclusion 4)
apparent KD of MS2 coat protein [2]: 18.4 nM

UUAAUGAUUGUGAGGAUAUUUGAUAGAUAGAUAUUAGAGAAGGUACAUGAGGAUCACCCAUGUGUGAUUAGAGA [Brourd's EX4 #70] (Eterna round: R97, puzzle: Brourd's mod of Exclusion 4)
apparent KD of MS2 coat protein (input ligand: FMN 200 uM): 164 nM | apparent KD of MS2 coat protein (input ligand: none): 75.4 nM

AGUAGUUGUUUCCGUUCUUACAUGAGGAUCACCCAUGUUUCUUGUCGUGCUCGCGUUGCUCGUCAGACUACCUGUUG [salish99_TOv1_r3_062] (puzzle: Sensor v3, turn-off variant 1)
apparent KD of MS2 coat protein [3]: 69.8 nM | apparent KD of MS2 coat protein [2]: 88.6 nM | apparent KD of MS2 coat protein [4]: 105 nM

CCAUCACAUGAGGAUCACCCAUGUGAGGAUAUGUUUUUGGUGCGUAUAAAGCCUGGGAACAGAAGGUACAGGGA [Eternabot (L2) Solution 50] (Eterna round: R97, puzzle: Exclusion 1)
apparent KD of MS2 coat protein (input ligand: FMN 200 uM): 15.3 nM | apparent KD of MS2 coat protein (input ligand: none): 12.9 nM

CCUCGACAUGAGGAUCACCCAUGUCAGGAUAUUGUGUUUUGGGUUUUUUACCUUUUGGCAAGAAGGGAUGUGUG [LRO-Excl1-19] (puzzle: Exclusion 1)
apparent KD of MS2 coat protein [2]: 14.4 nM

UAAAAGCUAGGAUAUACAUGAGGAUCACCCAUGUCACGGGUGCCACACCGAAAGGUGCGUAGAAGGAGCCCAAA [Orrecedi] (puzzle: Exclusion 3)
apparent KD of MS2 coat protein [2]: 38.4 nM

GAAUAGAGAGGAUAUGCAAUGUAGGUAGUACGAUAUAUCUGACAUGAGGAUCACCCAUGUAGAAGGCUCAGAUC [EX2 #7] (Eterna round: R97, puzzle: Exclusion 2)
apparent KD of MS2 coat protein (input ligand: FMN 200 uM): 40.4 nM | apparent KD of MS2 coat protein (input ligand: none): 37.9 nM

ACUUAUAGAGGAUAUACAGUAUAUUACAUGAGGAUCACCCAUGUUCUUCAAUGUAUAUAUGUAGAAGGCUAAGGAA [EX-5 Malc#6] (puzzle: Exclusion 5)
apparent KD of MS2 coat protein [2]: 183 nM

UGAUUGUUUAACAGAUUAUACAUGAGGAUCACCCAUGUAGGUCCUACGUGCACAUUAUGCAGCUCGUCUUAUUCCCA [Sensor-V1 #72] (Eterna round: R97, puzzle: Sensor, turn-off variant 1)
apparent KD of MS2 coat protein (input ligand: FMN 200 uM): 35.5 nM | apparent KD of MS2 coat protein (input ligand: none): 37.3 nM

CCGCUCCGUGUAGGAUAUCGUUGUACCCUGCGGCGAGAAGGACAUGAGGAUCACCCAUGUAUGUUAUUAUCACGCGUGGCGCAC [Design 71] (Eterna round: R96, puzzle: Exclusion NG 1)
apparent KD of MS2 coat protein (input ligand: FMN 200 uM): 18 nM | apparent KD of MS2 coat protein [1]: 15.8 nM | apparent KD of MS2 coat protein (input ligand: none): 19.3 nM

AAGACACAUGAGGAUCACCCAUGUGAGGAUAUUUGAUGCGUACCUACAGGACUGCGAUAAAGAAGGCAUAAGGG [Eternabot (L2) Solution 80] (Eterna round: R97, puzzle: Exclusion 1)
apparent KD of MS2 coat protein (input ligand: FMN 200 uM): 50.3 nM | apparent KD of MS2 coat protein (input ligand: none): 17.7 nM

CUUAUGUGAGGAUAUGCCUGGCCGUGAGGCCAAAUUUAUAAGCAGAAGGCACAUGAGGAUCACCCAUGUGCGGG [jl-ex4-4.69 ViennaUCT mod] (Eterna round: R97, puzzle: Exclusion 4)
apparent KD of MS2 coat protein (input ligand: FMN 200 uM): 115 nM | apparent KD of MS2 coat protein (input ligand: none): 317 nM
